# The supplement of paper PMC10567573
# Assay: protein stability index of a GFP-peptide fusion (GPS, HEK-293T) (PSI 1-6); higher = more stable
# 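Further: lentivirally expressed fusions sorted by FACS into six bins by GFP to DsRed ratio, PSI derived from sequencing read proportions per bin multiplied by bin number.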
protein,measurement,setting,value
QLDWDELETNQQHFHALCHSLLVS [C2orf65 WT],protein stability index,"parent: IOH10869_57, c terminus: a fixed tail appended",2.16
IAQYALLGYFIRSWRTLAILVNLQ [SLC22A15 WT],protein stability index,"parent: IOH10897_34, c terminus: a fixed tail appended",2.63
LIVVTQSHLVIHNLFEGMIWFIVP,protein stability index,"parent: IOH10978_35, c terminus: a fixed tail appended",2.99
IHSIALSTFASLIGPFGGFFASGF,protein stability index,"parent: IOH10978_57, c terminus: a fixed tail appended",3.13
HYPFLGAMGDHSKKKPGTAMCVGC [ISL2 WT],protein stability index,"parent: IOH10979_2, c terminus: a fixed tail appended",2.74
RDIDLKNRRGGPPFAFVEFEDPRD,protein stability index,"parent: IOH11039_8, c terminus: a fixed tail appended",3.81
YSPRRSRGSPRYSPRHSRSRSRT,protein stability index,"parent: IOH11039_42, c terminus: native",3.93
FSDSSMDHFQKFLPTVGGQLGTAG [MYOZ1 WT],protein stability index,"parent: IOH11059_14, c terminus: a fixed tail appended",2.43
YARYHQAFADRDQSERQRHESQQL,protein stability index,"parent: IOH11065_9, c terminus: a fixed tail appended",2.09
SEVEELNMSLTALREKLLEAEQSL,protein stability index,"parent: IOH11065_62, c terminus: a fixed tail appended",2.99
LREKLLEAEQSLRNLEDIHMSLEK,protein stability index,"parent: IOH11065_64, c terminus: a fixed tail appended",2.56
LYKEELEQTYHAKLENARLSSEMN [LMNB1 WT],protein stability index,"parent: IOH11078_44, c terminus: a fixed tail appended",2.79
YSGGGYYLDLPGSRQGSAEALRAL,protein stability index,"parent: IOH11095_45, c terminus: a fixed tail appended",1.95
VFIFYYVVEEILELHIHRLRYLSS,protein stability index,"parent: IOH11095_61, c terminus: a fixed tail appended",2.92
TLARCAKDILGFAVMFFIVFFAYA,protein stability index,"parent: IOH11095_79, c terminus: a fixed tail appended",2.95
SGPEAARAGGWVSGEEFYMLTRRV,protein stability index,"parent: IOH11095_116, c terminus: a fixed tail appended",2.25
YSGAYGASVSDEELKRRVAEELAL [CHCHD3 WT],protein stability index,"parent: IOH11162_9, c terminus: a fixed tail appended",2.57
TKHKCRQLTKASLKPRGCSKPPWR,protein stability index,"parent: IOH11209_33, c terminus: a fixed tail appended",2.75
LTKASLKPRGCSKPPWRPPGGKL,protein stability index,"parent: IOH11209_36, c terminus: native",2.04
YLDPSVLSGVSCFVMFLCLADYLV [ARL6IP1 WT],protein stability index,"parent: IOH11244_11, c terminus: a fixed tail appended",2.87
IKRTIRVLDVNNQSFREQEEPSNK,protein stability index,"parent: IOH11256_3, c terminus: a fixed tail appended",3.53
RVRPLARVTSLANLISPVRNGAVR,protein stability index,"parent: IOH11256_7, c terminus: a fixed tail appended",3.05
PTPAKRRSSALWSEMLDITMKESL,protein stability index,"parent: IOH11256_16, c terminus: a fixed tail appended",2.21
CTACGSVLEDNIIVSEVQFVESSG,protein stability index,"parent: IOH11305_5, c terminus: a fixed tail appended",3.03
FVESSGGGSSAVGQFVSLDGAGKT,protein stability index,"parent: IOH11305_8, c terminus: a fixed tail appended",2.44
RGVRRTASTPTPDDKLFQKLAKVY [CPN1 WT],protein stability index,"parent: IOH11355_40, c terminus: a fixed tail appended",1.95
FHEVGTEMIITKAGRRMFPSYKVK,protein stability index,"parent: IOH11603_12, c terminus: a fixed tail appended",2.15
YQNHKITQLKIENNPFAKGFRGSD,protein stability index,"parent: IOH11603_37, c terminus: a fixed tail appended",2.57
FLPGGDMMTLLMKKDTLTEEETQF,protein stability index,"parent: IOH11742_29, c terminus: a fixed tail appended",2.21
RQLAYSTVGTPDYIAPEVFMQTGY,protein stability index,"parent: IOH11742_47, c terminus: a fixed tail appended",2.48
NWKETLVFPPEVPISEKAKDLILR,protein stability index,"parent: IOH11742_57, c terminus: a fixed tail appended",3.08
FCIDSENRIGNSGVEEIKGHPFFE,protein stability index,"parent: IOH11742_61, c terminus: a fixed tail appended",2.18
AEVSWEPGRREGCDICAGKAGCPI [RPS21 WT],protein stability index,"parent: IOH11779_7, c terminus: a fixed tail appended",3.06
EPLPVERDPAAGAAPFRFVARPVR,protein stability index,"parent: IOH11805_4, c terminus: a fixed tail appended",2.21
AAPFRFVARPVRFPREHQFFEDGD,protein stability index,"parent: IOH11805_6, c terminus: a fixed tail appended",2.1
FDALDDYEHHYHTLHGNVCSFCKR,protein stability index,"parent: IOH11805_16, c terminus: a fixed tail appended",3.55
YEHHYHTLHGNVCSFCKRAFPSGH,protein stability index,"parent: IOH11805_17, c terminus: a fixed tail appended",2.07
HLYPADFRFDKPKKSRSPASAEAP,protein stability index,"parent: IOH11805_29, c terminus: a fixed tail appended",2.92
LLEDMRASEAFHWDERGRAAAYSP,protein stability index,"parent: IOH11833_9, c terminus: a fixed tail appended",1.79
VGAAGSARQELLGDRPRWQRLLGE,protein stability index,"parent: IOH11833_41, c terminus: a fixed tail appended",3.32
ILREELQKQRLREILEQQQQERND [ZNF277 WT],protein stability index,"parent: IOH12086_23, c terminus: a fixed tail appended",4.26
KYMPHLCQDSSGEVSCQCQLHPPR [MGC27345 WT],protein stability index,"parent: IOH12124_9, c terminus: a fixed tail appended",2
FPESETKECPFRVNKVCGAACSSK [SERPINB5 WT],protein stability index,"parent: IOH12329_30, c terminus: a fixed tail appended",2.39
GYGIYYFIYSTWKGRTIYLEDIYV,protein stability index,"parent: IOH12374_13, c terminus: a fixed tail appended",3
IIKKVAEVALDKGCSQFRLAVLDW,protein stability index,"parent: IOH12374_19, c terminus: a fixed tail appended",2.44
LTEAEGWHFFCFQGEATRKLAGK,protein stability index,"parent: IOH12374_27, c terminus: native",2.13
SSKSRAAPSPQEALVRLRETEEML,protein stability index,"parent: IOH12461_3, c terminus: a fixed tail appended",1.94
TNIRLPNVPSSSLPAQPNRKPGMS,protein stability index,"parent: IOH12461_31, c terminus: a fixed tail appended",4.51
FAPLLDEQYDLATKRVRQLLDLDP [GOLPH3 WT],protein stability index,"parent: IOH12568_43, c terminus: a fixed tail appended",2.12
DLKDDGNMMKVLRGHQNWVYSCAF,protein stability index,"parent: IOH12660_34, c terminus: a fixed tail appended",2
FSHDGLHVASLADDKMVRFWRIDE,protein stability index,"parent: IOH12660_54, c terminus: a fixed tail appended",1.85
YPEDSSWAAKAPGASSREEPPEEP,protein stability index,"parent: IOH12673_12, c terminus: a fixed tail appended",4.25
FQELAGKELCAMSEEQFRQRSPLG,protein stability index,"parent: IOH12673_30, c terminus: a fixed tail appended",2.63
